Experimental findings from article doi:10.1101/2023.02.23.529646 (bioRxiv, 2023) are described below.

To fix the notation:
B3: ACAD9WT (res. 38-621) (enzyme)
chain: AFAKELFLGKIKKKEVFPFPEVSQDELNEINQFLGPVEKFFTEEVDSRKIDQEGKIPDETLEKLKSLGLFGLQVPEEYGGLGFSNTMYSRLGEIISMDGSITVTLAAHQAIGLKGIILAGTEEQKAKYLPKLASGEHIAAFCLTEPASGSDAASIRSRATLSEDKKHYILNGSKVWITNGGLANIFTVFAKTEVVDSDGSVKDKITAFIVERDFGGVTNGKPEDKLGIRGSNTCEVHFENTKIPVENILGEVGDGFKVAMNILNSGRFSMGSVVAGLLKRLIEMTAEYACTRKQFNKRLSEFGLIQEKFALMAQKAYVMESMTYLTAGMLDQPGFPDCSIEAAMVKVFSSEAAWQCVSEALQILGGLGYTRDYPYERILRDTRILLIFEGTNEILRMYIALTGLQHAGRILTTRIHELKQAKVSTVMDTVGRRLRDSLGRTVDLGLTGNHGVVHPSLADSANKFEENTYCFGRTVETLLLRFGKTIMEEQLVLKRVANILINLYGMTAVLSRASRSIRIGLRNHDHEVLLANTFCVEAYLQNLFSLSQLDKYAPENLDEQIKKVSQQILEKRAYICAHPLDRTC

Series [1] concerns the molecule itself. Put plainly: mass photometry.
Series [2] deals with the molecule itself. Put plainly: dynamic light scattering.
Series [3] has as its target B3. Put plainly: mass photometry.

B1: VLCADWT (res. 72-655) (enzyme)
chain: SFAVGMFKGQLTTDQVFPYPSVLNEEQTQFLKELVEPVSRFFEEVNDPAKNDALEMVEETTWQGLKELGAFGLQVPSELGGVGLCNTQYARLVEIVGMHDLGVGITLGAHQSIGFKGILLFGTKAQKEKYLPKLASGETVAAFCLTEPSSGSDAASIRTSAVPSPCGKYYTLNGSKLWISNGGLADIFTVFAKTPVTDPATGAVKEKITAFVVERGFGGITHGPPEKKMGIKASNTAEVFFDGVRVPSENVLGEVGSGFKVAMHILNNGRFGMAAALAGTMRGIIAKAVDHATNRTQFGEKIHNFGLIQEKLARMVMLQYVTESMAYMVSANMDQGATDFQIEAAISKIFGSEAAWKVTDECIQIMGGMGFMKEPGVERVLRDLRIFRIFEGTNDILRLFVALQGCMDKGKELSGLGSALKNPFGNAGLLLGEAGKQLRRRAGLGSGLSLSGLVHPELSRSGELAVRALEQFATVVEAKLIKHKKGIVNEQFLLQRLADGAIDLYAMVVVLSRASRSLSEGHPTAQHEKMLCDTWCIEAAARIREGMAALQSDPWQQELYRNFKSISKALVERGGVVTSNPLGF
With B1, the “stoichiometry N” value in series [1] came out at 2.

B2: VLCAD_(ACAD9) (enzyme)
chain: SFAVGMFKGQLTTDQVFPYPSVLNEEQTQFLKELVEPVSRFFEEVNDPAKNDALEMVEETTWQGLKELGAFGLQVPSELGGVGLCNTQYARLVEIVGMHDLGVGITLGAHQSIGFKGILLFGTKAQKEKYLPKLASGETVAAFCLTEPSSGSDAASIRTSAVPSPCGKYYTLNGSKLWISNGGLADIFTVFAKTPVTDPATGAVKEKITAFVVERGFGGITHGPPEKKMGIKASNTAEVFFDGVRVPSENVLGEVGSGFKVAMHILNNGRFGMAAALAGTMRGIIAKAVDHATNRTQFGEKIHNFGLIQEKLARMVMLQYVTESMAYMVSANMDQGATDFQIEAAISKIFGSEAAWKVTDECIQILGGLGYTKEPGVERVLRDLRIFRIFEGTNDILRLFVALQGCMDKGKELSGLGSALKNPFGNAGLLLGEAGKQLRRRAGLGSGLSLSGLVHPELSRSGELAVRALEQFATVVEAKLIKHKKGIVNEQFLLQRLADGAIDLYAMVVVLSRASRSLSEGHPTAQHEKMLCDTWCIEAAARIREGMAALQSDPWQQELYRNFKSISKALVERGGVVTSNPLGF
For the molecule B2, the “stoichiometry N” value in series [1] was 2.
As to B3, the “stoichiometry N” value in series [2] is 2.

B4: ACAD9_(A184S) (enzyme)
chain: AFAKELFLGKIKKKEVFPFPEVSQDELNEINQFLGPVEKFFTEEVDSRKIDQEGKIPDETLEKLKSLGLFGLQVPEEYGGLGFSNTMYSRLGEIISMDGSITVTLAAHQAIGLKGIILAGTEEQKAKYLPKLASGEHIAAFCLTEPSSGSDAASIRSRATLSEDKKHYILNGSKVWITNGGLANIFTVFAKTEVVDSDGSVKDKITAFIVERDFGGVTNGKPEDKLGIRGSNTCEVHFENTKIPVENILGEVGDGFKVAMNILNSGRFSMGSVVAGLLKRLIEMTAEYACTRKQFNKRLSEFGLIQEKFALMAQKAYVMESMTYLTAGMLDQPGFPDCSIEAAMVKVFSSEAAWQCVSEALQILGGLGYTRDYPYERILRDTRILLIFEGTNEILRMYIALTGLQHAGRILTTRIHELKQAKVSTVMDTVGRRLRDSLGRTVDLGLTGNHGVVHPSLADSANKFEENTYCFGRTVETLLLRFGKTIMEEQLVLKRVANILINLYGMTAVLSRASRSIRIGLRNHDHEVLLANTFCVEAYLQNLFSLSQLDKYAPENLDEQIKKVSQQILEKRAYICAHPLDRTC
Take B4: the binding result in series [2] was “binds”.

B5: ACAD9_(A184S/SR194TS) (enzyme)
chain: AFAKELFLGKIKKKEVFPFPEVSQDELNEINQFLGPVEKFFTEEVDSRKIDQEGKIPDETLEKLKSLGLFGLQVPEEYGGLGFSNTMYSRLGEIISMDGSITVTLAAHQAIGLKGIILAGTEEQKAKYLPKLASGEHIAAFCLTEPSSGSDAASIRTSATLSEDKKHYILNGSKVWITNGGLANIFTVFAKTEVVDSDGSVKDKITAFIVERDFGGVTNGKPEDKLGIRGSNTCEVHFENTKIPVENILGEVGDGFKVAMNILNSGRFSMGSVVAGLLKRLIEMTAEYACTRKQFNKRLSEFGLIQEKFALMAQKAYVMESMTYLTAGMLDQPGFPDCSIEAAMVKVFSSEAAWQCVSEALQILGGLGYTRDYPYERILRDTRILLIFEGTNEILRMYIALTGLQHAGRILTTRIHELKQAKVSTVMDTVGRRLRDSLGRTVDLGLTGNHGVVHPSLADSANKFEENTYCFGRTVETLLLRFGKTIMEEQLVLKRVANILINLYGMTAVLSRASRSIRIGLRNHDHEVLLANTFCVEAYLQNLFSLSQLDKYAPENLDEQIKKVSQQILEKRAYICAHPLDRTC
B5: the “stoichiometry N” value in series [1] stood at 2.

B6: ACAD9_(S191A) (enzyme)
chain: AFAKELFLGKIKKKEVFPFPEVSQDELNEINQFLGPVEKFFTEEVDSRKIDQEGKIPDETLEKLKSLGLFGLQVPEEYGGLGFSNTMYSRLGEIISMDGSITVTLAAHQAIGLKGIILAGTEEQKAKYLPKLASGEHIAAFCLTEPASGSDAAAIRSRATLSEDKKHYILNGSKVWITNGGLANIFTVFAKTEVVDSDGSVKDKITAFIVERDFGGVTNGKPEDKLGIRGSNTCEVHFENTKIPVENILGEVGDGFKVAMNILNSGRFSMGSVVAGLLKRLIEMTAEYACTRKQFNKRLSEFGLIQEKFALMAQKAYVMESMTYLTAGMLDQPGFPDCSIEAAMVKVFSSEAAWQCVSEALQILGGLGYTRDYPYERILRDTRILLIFEGTNEILRMYIALTGLQHAGRILTTRIHELKQAKVSTVMDTVGRRLRDSLGRTVDLGLTGNHGVVHPSLADSANKFEENTYCFGRTVETLLLRFGKTIMEEQLVLKRVANILINLYGMTAVLSRASRSIRIGLRNHDHEVLLANTFCVEAYLQNLFSLSQLDKYAPENLDEQIKKVSQQILEKRAYICAHPLDRTC
Take B6: in series [1], the “stoichiometry N” value was 2.

B7: ACAD9_(VLCAD) (enzyme)
chain: AFAKELFLGKIKKKEVFPFPEVSQDELNEINQFLGPVEKFFTEEVDSRKIDQEGKIPDETLEKLKSLGLFGLQVPEEYGGLGFSNTMYSRLGEIISMDGSITVTLAAHQAIGLKGIILAGTEEQKAKYLPKLASGEHIAAFCLTEPASGSDAASIRSRATLSEDKKHYILNGSKVWITNGGLANIFTVFAKTEVVDSDGSVKDKITAFIVERDFGGVTNGKPEDKLGIRGSNTCEVHFENTKIPVENILGEVGDGFKVAMNILNSGRFSMGSVVAGLLKRLIEMTAEYACTRKQFNKRLSEFGLIQEKFALMAQKAYVMESMTYLTAGMLDQPGFPDCSIEAAMVKVFSSEAAWQCVSEALQIMGGMGFMRDYPYERILRDTRILLIFEGTNEILRMYIALTGLQHAGRILTTRIHELKQAKVSTVMDTVGRRLRDSLGRTVDLGLTGNHGVVHPSLADSANKFEENTYCFGRTVETLLLRFGKTIMEEQLVLKRVANILINLYGMTAVLSRASRSIRIGLRNHDHEVLLANTFCVEAYLQNLFSLSQLDKYAPENLDEQIKKVSQQILEKRAYICAHPLDRTC
B7: in series [1], the “stoichiometry N” value was determined as 2.

B8: ECSIT_(CTER-W324A) (domain or fragment)
chain: QDPVELAMFGLRHMEPDLSARVTIYQVPLPKDSTGAADPPQPHIVGIQSPDQQAALARHNPARPVFVEGPFSLWLRNKCVYYHILRADLLPPEEREVEETPEEANLYYPMQLDLEYVRSGWDNYEFDINEVEEGPVFAMCMAGAHDQATMAKWIQGLQETNPTLAQIPVVFRLAGSTRELQTSSAGLEEPPLPEDHQEEDDNLQRQQQGQS
As to B8, the binding result in series [3] was “binds”.

B9: ECSIT_(CTER-Y327F) (domain or fragment)
chain: QDPVELAMFGLRHMEPDLSARVTIYQVPLPKDSTGAADPPQPHIVGIQSPDQQAALARHNPARPVFVEGPFSLWLRNKCVYYHILRADLLPPEEREVEETPEEWNLFYPMQLDLEYVRSGWDNYEFDINEVEEGPVFAMCMAGAHDQATMAKWIQGLQETNPTLAQIPVVFRLAGSTRELQTSSAGLEEPPLPEDHQEEDDNLQRQQQGQS
For the molecule B9, the binding result in series [3] is “binds”.

B10: ECSIT_(CTER-Y328A) (domain or fragment)
chain: QDPVELAMFGLRHMEPDLSARVTIYQVPLPKDSTGAADPPQPHIVGIQSPDQQAALARHNPARPVFVEGPFSLWLRNKCVYYHILRADLLPPEEREVEETPEEWNLYAPMQLDLEYVRSGWDNYEFDINEVEEGPVFAMCMAGAHDQATMAKWIQGLQETNPTLAQIPVVFRLAGSTRELQTSSAGLEEPPLPEDHQEEDDNLQRQQQGQS
Take B10: the binding result in series [3] is “binds”.
